According to the supplement of paper PMC7125110:
± gives the standard error. Variants at the floor of the assay were thinned out.

B1: glmS ribozyme (parent)
chain: AUAAAAGCGCCAGAACUACAGAAAUGUAGUUGACGAGGAGGAGGUUUAUCGAAUUUUCGGCGGAUGCCUCCAAA

How the values were obtained:
Conditions in all cases: with glucosamine-6-phosphate
[1] = variants of: B1; assay: self-cleavage kobs at 40 uM GlcN6P; higher = faster cleavage; RNA array
In short: (§1)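 Barcoded ribozyme variants, transcribed in situ by E. coli RNA polymerase on sequenced MiSeq chips, were followed via a hybridised Cy3 probe at 37 °C. Glucosamine-6-phosphate ranged from 40 μM to 10 mM in HEPES/KCl/Mg(OAc)2 buffer. kobs came from decay fits to per-tile medians, and kcat and KM from weighted Michaelis–Menten fits.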

[2] = variants of: B1; assay: self-cleavage kobs at 2500 uM GlcN6P; higher = faster cleavage; RNA array
In short: as §1

[3] = variants of: B1; assay: self-cleavage kobs at 10000 uM GlcN6P; higher = faster cleavage; RNA array
In short: as §1

[4] = variants of: B1; assay: self-cleavage kobs at 160 uM GlcN6P; higher = faster cleavage; RNA array
In short: as §1

[5] = variants of: B1; assay: self-cleavage kobs at 640 uM GlcN6P; higher = faster cleavage; RNA array
In short: as §1

Variant | self-cleavage kobs at 40 uM GlcN6P [1] [s⁻¹] | self-cleavage kobs at 2500 uM GlcN6P [2] [s⁻¹] | self-cleavage kobs at 10000 uM GlcN6P [3] [s⁻¹] | self-cleavage kobs at 160 uM GlcN6P [4] [s⁻¹] | self-cleavage kobs at 640 uM GlcN6P [5] [s⁻¹]
AUAAAAGCGCCAGAACUACAGAAAUGUAGUUUAUGAGGAGGCGGUUUAUCGAAUUUUCGGCGGAUGCCUCCAAA [G32U C34U A42C] | < 1e-05 | < 1e-05 | – | – | –
AUAAAAGCGCCAGAACUACAGAAAUGUAGUUUACGGGGAGGAGGUUUAUCGAAUUUUCAGCGGAUGCCUCCAAA [G32U A36G G59A] | < 1e-05 | < 1e-05 | < 1e-05 | – | –
AUAAAAGCGCCAGAACUACAGAAAUGUAGUUCACGAGGAGGAGGCUUAUCGAAUUUUGUGCGGAUGCCUCCAAA [G32C U45C C58G G59U] | < 1e-05 | – | – | – | –
AUAAAAGCGCCAGAACUACAGAAAUGUAGUUCACGAGCAGGAGGUUUAUCGAAUUUUCGGCGGAUGCCUCCAAA [G32C G38C] | < 1e-05 | – | – | < 1e-05 | < 1e-05
AUAAAAGCGCCAGAACUACAGAAAUGUAGUUUCCGAGGAGGAGGGUUAUCGAAUUUUCGGCGGAAGCCUCCAAA [G32U A33C U45G U65A] | < 1e-05 | < 1e-05 | < 1e-05 | – | < 1e-05
AUAAAAGCGCCAGAACUACAGAAAUGUAGUUCACGAGGAGGAGGUUUAUCGAAUUUUCGGCGGAUGCCGCCAAA [G32C U69G] | 0.000189 ± 3.1e-05 | 0.000111 ± 2.5e-05 | 9.57e-05 ± 1.1e-05 | – | 0.000383 ± 8e-05
AUAAAAGCGCCAGAACUACAGAAAUGUAGUUUACGGGGAGGAGGCUUAUCGAAUUUUCGGCGGAUGCGUCCAAA [G32U A36G U45C C68G] | < 1e-05 | – | – | – | –
AUAAAAGCGCCAGAACUACAGAAAUGUAGUUCACGAGGAGGAUGUUCAUCGAAUUUUCGGCGGAUGCCUCCAAA [G32C G43U U47C] | < 1e-05 | – | – | – | –
AUAAAAGCGCCAGAACUACAGAAAUGUAGUUCACGAGGAGGAGCUUUAUCGAAUUUUCGGCGGAUGCCUCCAAA [G32C G44C] | < 1e-05 | < 1e-05 | < 1e-05 | < 1e-05 | –
AUAAAAGCGCCAGAACUACAGAAAUGUAGUUUAUGAGGAGGAGGUUUAUCGAAUUUUCGGCGGAUGCCUCCAAA [G32U C34U] | < 1e-05 | – | < 1e-05 | < 1e-05 | < 1e-05
AUAAAAGCGCCAGAACUACAGAAAUGUAGUUUACGAGGAGGAGGUUUAUCGGAUUUUAGGCGGAUGCCUACAAA [G32U A52G C58A C70A] | 5.29e-05 ± 2.5e-05 | – | 4.31e-05 ± 2e-05 | – | –
AUAAAAGCGCCAGAACUACAGAAAUGUAGUUUACGAGGAGGAGGUUUAUGGAAUUUUCGGCGGAUGCGUCCAAA [G32U C50G C68G] | 0.00012 ± 2.5e-05 | – | 9.96e-05 ± 1.7e-05 | – | –
AUAAAAGCGCCAGAACUACAGAAAUGUAGUUUACGAGGAGGAGGUUUAUCGCAUUUUCGGCGGAUGCCUCCAAA [G32U A52C] | < 1e-05 | – | < 1e-05 | – | < 1e-05
AUAAAAGCGCCAGAACUACAGAAAUGUAGUUCACGAGGAAGAGGUUUAUCGAAUUUUCGGCGGAUGCCUCCAAA [G32C G40A] | < 1e-05 | – | 1.99e-05 ± 7.3e-06 | < 1e-05 | –
AUAAAAGCGCCAGAACUACAGAAAUGUAGUUUACGAGGAGGAUUUUUAUCGAAUUUUCGACGGAUGCCUCCAAA [G32U G43U G44U G60A] | < 1e-05 | < 1e-05 | – | – | < 1e-05
AUAAAAGCGCCAGAACUACAGAAAUGUAGUUUACGAGGUGGAGGUUUAUCGAAUUUUCGACGGAUGUCUCCAAA [G32U A39U G60A C67U] | < 1e-05 | – | < 1e-05 | – | –
AUAAAAGCGCCAGAACUACAGAAAUGUAGUUCACGAGGAGGAGGUUUAGCGAAUUUUCGGCGGAUGCCUCCAAA [G32C U49G] | < 1e-05 | – | – | < 1e-05 | < 1e-05
AUAAAAGCGCCAGAACUACAGAAAUGUAGUUUACGAGCAGGAGGUUUAUCGAAUAUUCGGCGGAUGCCUCCAAA [G32U G38C U55A] | < 1e-05 | – | < 1e-05 | – | < 1e-05
AUAAAAGCGCCAGAACUACAGAAAUGUAGUUUACGUGGAGGAGGUGUUUCGAAUUCUCGUUGGAUGCCUCCAAA [G32U A36U U46G A48U U56C G60U C61U] | < 1e-05 | – | < 1e-05 | – | < 1e-05
AUAAAAGCGCCAGAACUACAGAAAUGUAGUUCACGAGGAGGAGGUUUAUCGAAUUCUCGGCGGAUGCCUCCAAA [G32C U56C] | < 1e-05 | – | – | < 1e-05 | < 1e-05
AUAAAAGCGCCAGAACUACAGAAAUGUAGUUCACGAGGAAGAGGUUUAUCGACUUUUCGGCGGAUGCCUCCAAA [G32C G40A A53C] | < 1e-05 | < 1e-05 | < 1e-05 | – | –
AUAAAAGCGCCAGAACUACAGAAAUGUAGUUCACGAGGAGAAGGUUUAUCGCAUUUUCGGCGGAUGCCUCCAAA [G32C G41A A52C] | < 1e-05 | < 1e-05 | – | < 1e-05 | –
AUAAAAGCGCCAGAACUACAGAAAUGUAGUUCACGAGGAGGACGUUUAUCUAAUUUUCGGCGGAUGCCUCCAAA [G32C G43C G51U] | < 1e-05 | – | < 1e-05 | – | –
AUAAAAGCGCCAGAACUACAGAAAUGUAGUUUACUAGGAGGAGGUUUAUCGAAUUUUCGGCGGAUGCCUCCAAA [G32U G35U] | < 1e-05 | < 1e-05 | < 1e-05 | < 1e-05 | < 1e-05
AUAAAAGCGCCAGAACUACAGAAAUGUAGUUCACGAGGAGGAGGUUGAUCGAAUGUUCGGCGGACGCCGCCAAA [G32C U47G U55G U65C U69G] | 0.000245 ± 8.5e-05 | – | 0.000357 ± 9.5e-05 | – | –
AUAAAAGCGCCAGAACUACAGAAAUGUAGUUUACGAGGAGGACGUUUAUCGAAUUUUCGGCGGAUGCCUCCAAA [G32U G43C] | < 1e-05 | < 1e-05 | – | < 1e-05 | < 1e-05
AUAAAAGCGCCAGAACUACAGAAAUGUAGUUUACGAGAAGGAGGUUUAUCGAAUUUUCGGCGGAUGCCUCCAAA [G32U G38A] | < 1e-05 | – | < 1e-05 | – | –
